Measurements from WO2009138413A1 (dated 2009).

Key:
[1] = target: human IL-13 (human, UniProt P35225 35-146); experiment: cell-based or functional assay
[2] = target: cynomolgus IL-13 (cynomolgus, UniProt Q0PW92 21-132); experiment: cell-based or functional assay
Sequence of cynomolgus IL-13 (Q0PW92 entry or part of it): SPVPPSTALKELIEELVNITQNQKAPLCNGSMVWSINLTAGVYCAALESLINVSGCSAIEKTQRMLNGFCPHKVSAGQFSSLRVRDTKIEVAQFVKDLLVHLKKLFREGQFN

Sequence of human IL-13 (P35225 35-146 limits assumed): as the sequence (Q0PW92 entry or part of it) above, with S1G, K10R, V42M, N67S, R83H, V100L counted along it

B1: DOM10-275-78 (VHH)
VHH: EVQLLESGGGLVQPGGSLRLSCVASGFTFDVAEMDWVRQAPGKGLEWVSTISPSRRGTYYADSVKGRFTISRDNSKNTLYLQMNSLRAEDTAVYYCAKAYTGRSLWGPGTLVTVSS
EC50, FIG. 1A HEK STAT6 assay with human IL-13, sample JAL050308_20p [1]: 2.65 nM
EC50, FIG. 1A HEK STAT6 assay with human IL-13, sample JAL050308_20s [1]: 2.42 nM
EC50, FIG. 1B HEK STAT6 assay with cynomolgus IL-13, sample JAL050308_20p [2]: 1.37 nM
EC50, FIG. 1B HEK STAT6 assay with cynomolgus IL-13, sample JAL050308_20s [2]: 1.37 nM

B2: DOM10-53-474 (VHH)
VHH: GVQLLESGGGLVQPGGSLRLSCAASGFTFAWYDMGWVRQAPGKGLEWVSSIDWHGEVTYYADSVKGRFTISRDNSKNTLYLQMNSLRAEDTAVYYCATAEDEPGYDYWGQGTLVTVSS
EC50, FIG. 1A HEK STAT6 assay with human IL-13 [1]: 0.72 nM
EC50, FIG. 1B HEK STAT6 assay with cynomolgus IL-13 [2]: 10.8 nM
